# Laboratory results as given in patent US20170355730A1.
# Starred links: 1 amine or outer side, 2 acyl side, 3 side chain; linkers in the order of their positions; H or OH if unused. Non-standard residues stand in square brackets, D forms with d. Primed or numbered codes have the meaning given here. No end group written: not given here. Trimesoyl = O=C(c1cc(C(=O)[*:2])cc(C(=O)[*:3])c1)[*:1]; d(pT) = C[C@H](OP(=O)(O)O)[C@@H](N)C(=O)O; Phe(4-F) = N[C@@H](Cc1ccc(F)cc1)C(=O)O; 2Nal = N[C@@H](Cc1ccc2ccccc2c1)C(=O)O; Pip′ = L-homoproline (pipecolyl); Pip = O=C(O)[C@@H]1CCCCN1; Dap = NC[C@H](N)C(=O)O; βAla = NCCC(=O)O; Sar = CNCC(=O)O
# B1: peptide 21 (Table 18) (peptide)
# peptide: Trimesoyl-[dF][Phe(4-F)][dT][Pip′][2Nal]RS[dF][Dap]F[2Nal]RRRR[Dap]K-NH2
# modifications: linker (positions not given here) via Trimesoyl; not fully specified (some residues, bridges); printed as bicyclo[Tm-(D-Phe-Fpa-D-Thr-Pip-Nal-Arg-Ser-D-Phe)-Dap-(Phe-Nal-Arg-Arg-Arg-Arg-Dap)]-Lys
# B2: peptide 12 (Table 18) (peptide)
# peptide: Trimesoyl-[dF][Phe(4-F)][dT][Pip′][2Nal]R[Dap]F[2Nal]RRRR[Dap]K-NH2
# modifications: linker (positions not given here) via Trimesoyl; not fully specified (some residues, bridges); printed as bicyclo[Tm-(D-Phe-Fpa-D-Thr-Pip-Nal-Arg)-Dap-(Phe-Nal-Arg-Arg-Arg-Arg-Dap)]-Lys
# B3: peptide 26 (Table 18) (peptide)
# peptide: Trimesoyl-[dF][Phe(4-F)][dT][Pip′][2Nal]RG[dA][Dap]F[2Nal]RRRR[Dap]K-NH2
# modifications: linker (positions not given here) via Trimesoyl; not fully specified (some residues, bridges); printed as bicyclo[Tm-(D-Phe-4-Fpa-D-Thr-Pip-Nal-Arg-Gly-D-Ala)-Dap-(Phe-Nal-Arg-Arg-Arg-Arg-Dap)]-Lys
# B4: peptide 16 (Table 18) (peptide)
# peptide: Trimesoyl-P[Sar][dD][Pip′][2Nal]RA[dA][dA][Dap]F[2Nal]RRRR[Dap]K-NH2
# modifications: linker (positions not given here) via Trimesoyl; not fully specified (some residues, bridges); printed as bicyclo[Tm-(Pro-Sar-D-Asp-Pip-Nal-Arg-Ala-D-Ala-D-Ala)-Dap-(Phe-Nal-Arg-Arg-Arg-Arg-Dap)]-Lys
# B5: peptide 17 (Table 18) (peptide)
# peptide: Trimesoyl-P[Sar][dD][Pip′][2Nal]RY[dA][Dap]F[2Nal]RRRR[Dap]K-NH2
# modifications: linker (positions not given here) via Trimesoyl; not fully specified (some residues, bridges); printed as bicyclo[Tm-(Pro-Sar-D-Asp-Pip-Nal-Arg-Tyr-D-Ala)-Dap-(Phe-Nal-Arg-Arg-Arg-Arg-Dap)]-Lys
# B6: peptide 11 (Table 18) (peptide)
# peptide: Trimesoyl-[dF][Phe(4-F)][dT][Pip][2Nal]RA[Dap]F[2Nal]RRRR[Dap]K
# modifications: linker (positions not given here) via Trimesoyl; not fully specified (C-terminus, bridges); printed as bicyclo[Tm-(D-Phe-Fpa-D-Thr-Pip-Nal-Arg-Ala)-Dap-(Phe-Nal-Arg-Arg-Arg-Arg-Dap)]-Lys; also: FITC on C-terminal Lys side chain (FA labeling)
# B7: peptide 15 (Table 18) (peptide)
# peptide: Trimesoyl-P[Sar][dD][Pip′][2Nal]R[βAla][βAla][Dap]F[2Nal]RRRR[Dap]K-NH2
# modifications: linker (positions not given here) via Trimesoyl; not fully specified (some residues, bridges); printed as bicyclo[Tm-(Pro-Sar-D-Asp-Pip-Nal-Arg-β-Ala-β-Ala)-Dap-(Phe-Nal-Arg-Arg-Arg-Arg-Dap)]-Lys
# B8: peptide 19 (Table 18) (peptide)
# peptide: Trimesoyl-P[Sar][dD][Pip′][2Nal]RR[dA][Dap]F[2Nal]RRRR[Dap]K-NH2
# modifications: linker (positions not given here) via Trimesoyl; not fully specified (some residues, bridges); printed as bicyclo[Tm-(Pro-Sar-D-Asp-Pip-Nal-Arg-Arg-D-Ala)-Dap-(Phe-Nal-Arg-Arg-Arg-Arg-Dap)]-Lys
# B9: peptide 22 (Table 18) (peptide)
# peptide: Trimesoyl-P[Sar][dD][Pip′][2Nal]RR[dF][Dap]F[2Nal]RRRR[Dap]K-NH2
# modifications: linker (positions not given here) via Trimesoyl; not fully specified (some residues, bridges); printed as bicyclo[Tm-(Pro-Sar-D-Asp-Pip-Nal-Arg-Arg-D-Phe)-Dap-(Phe-Nal-Arg-Arg-Arg-Arg-Dap)]-Lys
# B10: peptide 27 (Table 18) (peptide)
# peptide: Trimesoyl-[dF][Phe(4-F)][dT][Pip′][2Nal]RA[dF][Dap]F[2Nal]RRRR[Dap]K-NH2
# modifications: linker (positions not given here) via Trimesoyl; not fully specified (some residues, bridges); printed as bicyclo[Tm-(D-Phe-4-Fpa-D-Thr-Pip-Nal-Arg-Ala-D-Phe)-Dap-(Phe-Nal-Arg-Arg-Arg-Arg-Dap)]-Lys
# B11: peptide 20 (Table 18) (peptide)
# peptide: Trimesoyl-P[Sar][dD][Pip′][2Nal]RD[dA][Dap]F[2Nal]RRRR[Dap]K-NH2
# modifications: linker (positions not given here) via Trimesoyl; not fully specified (some residues, bridges); printed as bicyclo[Tm-(Pro-Sar-D-Asp-Pip-Nal-Arg-Asp-D-Ala)-Dap-(Phe-Nal-Arg-Arg-Arg-Arg-Dap)]-Lys
# B12: peptide 18 (Table 18) (peptide)
# peptide: Trimesoyl-P[Sar][dD][Pip′][2Nal]RV[dA][Dap]F[2Nal]RRRR[Dap]K-NH2
# modifications: linker (positions not given here) via Trimesoyl; not fully specified (some residues, bridges); printed as bicyclo[Tm-(Pro-Sar-D-Asp-Pip-Nal-Arg-Val-D-Ala)-Dap-(Phe-Nal-Arg-Arg-Arg-Arg-Dap)]-Lys
# B13: peptide 45 (Table 18) (peptide)
# peptide: Trimesoyl-[dF][Phe(4-F)][dT][Pip′][2Nal]RA[dF][Dap][dR]R[dR]R[2Nal][dF][Dap]K
# modifications: linker (positions not given here) via Trimesoyl; not fully specified (C-terminus, bridges); printed as bicyclo[Tm-(D-Phe-Fpa-D-Thr-Pip-Nal-Arg-Ala-D-Phe)-Dap-(D-Arg-Arg-D-Arg-Arg-Nal-D-Phe-Dap)]-Lys
# B14: peptide 10 (Table 18) (peptide)
# peptide: Trimesoyl-P[Sar][dD][Pip′][2Nal]R[Dap]F[2Nal]RRRR[Dap]K-NH2
# modifications: linker (positions not given here) via Trimesoyl; not fully specified (some residues, bridges); printed as bicyclo[Tm-(Pro-Sar-D-Asp-Pip-Nal-Arg)-Dap-(Phe-Nal-Arg-Arg-Arg-Arg-Dap)]-Lys
# B15: peptide 24 (Table 18) (peptide)
# peptide: Trimesoyl-P[Sar][dD][Pip′][2Nal]RR[dR][Dap]F[2Nal]RRRR[Dap]K-NH2
# modifications: linker (positions not given here) via Trimesoyl; not fully specified (some residues, bridges); printed as bicyclo[Tm-(Pro-Sar-D-Asp-Pip-Nal-Arg-Arg-D-Arg)-Dap-(Phe-Nal-Arg-Arg-Arg-Arg-Dap)]-Lys
# B16: peptide 23 (Table 18) (peptide)
# peptide: Trimesoyl-P[Sar][dD][Pip′][2Nal]RR[dV][Dap]F[2Nal]RRRR[Dap]K-NH2
# modifications: linker (positions not given here) via Trimesoyl; not fully specified (some residues, bridges); printed as bicyclo[Tm-(Pro-Sar-D-Asp-Pip-Nal-Arg-Arg-D-Val)-Dap-(Phe-Nal-Arg-Arg-Arg-Arg-Dap)]-Lys
# B17: peptide 25 (Table 18) (peptide)
# peptide: Trimesoyl-P[Sar][dD][Pip′][2Nal]RR[dD][Dap]F[2Nal]RRRR[Dap]K-NH2
# modifications: linker (positions not given here) via Trimesoyl; not fully specified (some residues, bridges); printed as bicyclo[Tm-(Pro-Sar-D-Asp-Pip-Nal-Arg-Arg-D-Asp)-Dap-(Phe-Nal-Arg-Arg-Arg-Arg-Dap)]-Lys
# B18: peptide 14 (Table 18) (peptide)
# peptide: Trimesoyl-P[Sar][dD][Pip′][2Nal]R[βAla][dA][Dap]F[2Nal]RRRR[Dap]K-NH2
# modifications: linker (positions not given here) via Trimesoyl; not fully specified (some residues, bridges); printed as bicyclo[Tm-(Pro-Sar-D-Asp-Pip-Nal-Arg-β-Ala-D-Ala)-Dap-(Phe-Nal-Arg-Arg-Arg-Arg-Dap)]-Lys
# B19: peptide 44 (Table 18) (peptide)
# peptide: Trimesoyl-[dF][Phe(4-F)][dT][Pip′][2Nal]RA[dF][Dap]R[2Nal]RFRR[Dap]K
# modifications: linker (positions not given here) via Trimesoyl; not fully specified (C-terminus, bridges); printed as bicyclo[Tm-(D-Phe-Fpa-D-Thr-Pip-Nal-Arg-Ala-D-Phe)-Dap-(Arg-Nal-Arg-Phe-Arg-Arg-Dap)]-Lys
# B20: peptide 46 (Table 18) (peptide)
# peptide: [dA][Sar][d(pT)][Pip′][2Nal]YQK
# modifications: lactam (positions not given here); not fully specified (C-terminus, bridges); printed as cyclo(D-Ala-Sar-D-pThr-Pip-Nal-Tyr-Gln)-Lys
# Molecular target: Pin1 (Example 6, construct not stated) (human) (UniProt Q13526)
# Test: fluorescence anisotropy
Binder,Kd [nM],fold increase of Pin1 inhibitory activity on substitution of D-Phe for D-Ala [fold],fold improvement of binding affinity against peptide 4 [fold]
B1,570,–,–
B2,2360,–,–
B3,740,–,–
B4,2490,–,–
B5,2170,–,–
B6,900,–,–
B7,4830,–,–
B8,720,–,–
B9,480,2,–
B10,270,–,2
B11,3190,–,–
B12,1750,–,–
B13,3100,–,–
B14,3420,–,–
B15,1310,–,–
B16,1920,–,–
B17,4600,–,–
B18,1750,–,–
B19,450,–,–
B20,240,–,–
